From US11833164B2, “Methods of treating Fabry disease in patients having a mutation in the GLA gene” (Amicus Therapeutics, Inc., priority 2019, dated 2023)
Where a chain is given by its changes, count along the chain named. In names and notes the source's numbering stands.

B1: L294I (protein)
chain: MQLRNPELHLGCALALRFLALVSWDIPGARALDNGLARTPTMGWLHWERFMCNLDCQEEPDSCISEKLFMEMAELMVSEGWKDAGYEYLCIDDCWMAPQRDSEGRLQADPQRFPHGIRQLANYVHSKGLKLGIYADVGNKTCAGFPGSFGYYDIDAQTFADWGVDLLKFDGCYCDSLENLADGYKHMSLALNRTGRSIVYSCEWPLYMWPFQKPNYTEIRQYCNHWRNFADIDDSWKSIKSILDWTSFNQERIVDVAGPGGWNDPDMLVIGNFGLSWNQQVTQMALWAIMAAPIFMSNDLRHISPQAKALLQDKDVIAINQDPLGKQGYQLRQGDNFEVWERPLSGLAWAVAMINRQEIGGPRSYTIAVASLGKGVACNPACFITQLLPVKRKLGFYEWTSRLRSHINPTGTVLLQLENTMQMSLKDLL
B2: N298D (protein)
chain: B1 chain with I294L, N298D
B3: H302N (protein)
chain: B1 chain with I294L, H302N
B4: N298T (protein)
chain: B1 chain with I294L, N298T
B5: D299N (protein)
chain: B1 chain with I294L, D299N
B6: Q306E (protein)
chain: B1 chain with I294L, Q306E
B7: S297T (protein)
chain: B1 chain with I294L, S297T
B8: H302Y (protein)
chain: B1 chain with I294L, H302Y
B9: H302L (protein)
chain: B1 chain with I294L, H302L
B10: F295Y (protein)
chain: B1 chain with I294L, F295Y
B11: L294V (protein)
chain: B1 chain with I294V
B12: Q306L (protein)
chain: B1 chain with I294L, Q306L
B13: I303S (protein)
chain: B1 chain with I294L, I303S
B14: L300V (protein)
chain: B1 chain with I294L, L300V
B15: D299H (protein)
chain: B1 chain with I294L, D299H
B16: H302D (protein)
chain: B1 chain with I294L, H302D
B17: L300I (protein)
chain: B1 chain with I294L, L300I
B18: F295S (protein)
chain: B1 chain with I294L, F295S
B19: N298I (protein)
chain: B1 chain with I294L, N298I
B20: S304I (protein)
chain: B1 chain with I294L, S304I
B21: F295I (protein)
chain: B1 chain with I294L, F295I
B22: F295V (protein)
chain: B1 chain with I294L, F295V

Tested on: mutant form of α-Gal A expressed in HEK-293 cells
Experiment: HEK assay (GLP HEK / Migalastat Amenability Assay): α-Gal A activity in lysates of transiently transfected HEK-293 cells incubated with or without 10 μM migalastat
Type: cell-based, human
Settings: for Absolute increase (% WT) / Relative increase: 10 μM migalastat versus baseline; for Baseline α-Gal A activity (% WT): absence of migalastat; for Baseline α-Gal A activity (% WT) / 10 μM migalastat α-Gal A activity (% WT): percentage of baseline wild-type α-Gal A activity; for Baseline α-Gal A activity (% WT) / Baseline α-Gal A activity / 10 μM migalastat α-Gal A activity / 10 μM migalastat α-Gal A activity (% WT) / Baseline α-Gal A activity (nmol/mg/hr): mean ± SEM; for Baseline α-Gal A activity / 10 μM migalastat α-Gal A activity / Baseline α-Gal A activity (nmol/mg/hr): lysates of HEK-293 cells transiently transfected with the mutant form; for Baseline α-Gal A activity / Baseline α-Gal A activity (nmol/mg/hr): incubated 5 days in absence of migalastat; for 10 μM migalastat α-Gal A activity: incubated 5 days with 10 μM migalastat; for 10 μM migalastat α-Gal A activity (% WT): with 10 μM migalastat, 5 days
Method in brief: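 HEK-293 cells transiently transfected with mutant α-Gal A and incubated with or without 10 μM migalastat; lysate activity given as nmol free 4-MU released per mg protein per hour. Values are mean±SEM.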

Molecule	Absolute increase (% WT)	Relative increase	Baseline α-Gal A activity (% WT)	Baseline α-Gal A activity	10 μM migalastat α-Gal A activity	10 μM migalastat α-Gal A activity (% WT)	Baseline α-Gal A activity (nmol/mg/hr)
B1	53.6 % WT	3.2	24.8 ± 2.4 % WT	8345 ± 717 nmol/mg/h	26761 ± 1915 nmol/mg/h	78.4 ± 6 % WT	
B2	21.7 % WT	9.6	2.5 ± 0.2 % WT	795 ± 56 nmol/mg/h	7645 ± 388 nmol/mg/h	24.2 ± 1.2 % WT	
B3	30.2 % WT	1.3	91.2 ± 4.3 % WT	31958 ± 1777 nmol/mg/h	42296 ± 2028 nmol/mg/h	121.4 ± 6.2 % WT	
B4	14.2 % WT	1.2	61.2 ± 4.7 % WT	20581 ± 1736 nmol/mg/h	25249 ± 1705 nmol/mg/h	75.4 ± 4.3 % WT	
B5	7.8 % WT	1.2	29.2 ± 4.7 % WT	11973 ± 1961 nmol/mg/h	14668 ± 809 nmol/mg/h	37.1 ± 2.9 % WT	
B6	19.7 % WT	1.2	82 ± 2.8 % WT	31745 ± 2212 nmol/mg/h	39019 ± 2405 nmol/mg/h	101.7 ± 4.2 % WT	
B7	9.7 % WT				3178 ± 327 nmol/mg/h	9.7 ± 0.8 % WT	BLD (“BLD” indicates that the mean α-Gal A activity was below the limit of detection (<142 nmol/mg/hr))
B8	25.3 % WT	1.4	59 ± 3.5 % WT	22554 ± 1372 nmol/mg/h	31688 ± 1241 nmol/mg/h	84.2 ± 5.2 % WT	
B9	24.6 % WT	1.4	60.7 ± 5.1 % WT	24188 ± 1797 nmol/mg/h	34251 ± 1760 nmol/mg/h	85.3 ± 4.7 % WT	
B10	36.3 % WT	1.6	62.9 ± 6.1 % WT	21452 ± 1929 nmol/mg/h	34502 ± 2504 nmol/mg/h	99.2 ± 6.5 % WT	
B11	33.8 % WT	9.0	4.4 ± 0.3 % WT	1452 ± 71 nmol/mg/h	13038 ± 880 nmol/mg/h	38.2 ± 2.7 % WT	
B12	19.6 % WT	1.3	56.9 ± 4 % WT	19792 ± 1899 nmol/mg/h	26515 ± 1960 nmol/mg/h	76.4 ± 3.4 % WT	
B13	3.8 % WT				1496 ± 117 nmol/mg/h	3.8 ± 0.3 % WT	BLD (“BLD” indicates that the mean α-Gal A activity was below the limit of detection (<142 nmol/mg/hr))
B14	14.0 % WT	13.2	1.3 ± 0.2 % WT	406 ± 48 nmol/mg/h	5354 ± 203 nmol/mg/h	15.3 ± 0.6 % WT	
B15	22.1 % WT	23.5	1 ± 0.1 % WT	358 ± 36 nmol/mg/h	8424 ± 875 nmol/mg/h	23.1 ± 2.4 % WT	
B16	25.8 % WT	1.3	95.1 ± 5.8 % WT	32677 ± 1437 nmol/mg/h	41716 ± 1847 nmol/mg/h	120.8 ± 6.6 % WT	
B17	34.4 % WT	2.6	20.7 ± 0.9 % WT	7328 ± 448 nmol/mg/h	19317 ± 757 nmol/mg/h	55.1 ± 2 % WT	
B18	10.5 % WT	16.8	0.6 ± 0.1 % WT	230 ± 45 nmol/mg/h	3847 ± 309 nmol/mg/h	11.1 ± 0.9 % WT	
B19	34.9 % WT	4.7	9.2 ± 0.7 % WT	2942 ± 262 nmol/mg/h	13906 ± 535 nmol/mg/h	44.1 ± 1.8 % WT	
B20	13.9 % WT	1.5	30.6 ± 1.4 % WT	11675 ± 939 nmol/mg/h	17257 ± 1837 nmol/mg/h	44.6 ± 2.4 % WT	
B21	25.7 % WT	1.3	78.3 ± 4.5 % WT	26687 ± 1470 nmol/mg/h	35634 ± 2203 nmol/mg/h	104.1 ± 6.6 % WT	
B22	48.0 % WT	1.7	73.4 ± 5.7 % WT	24973 ± 1752 nmol/mg/h	41782 ± 2877 nmol/mg/h	121.5 ± 7.7 % WT	
